Publication PMC5380708, “Optimized synthesis of novel prenyl ferulate performed by feruloyl esterases from Myceliophthora thermophila in microemulsions” (Applied Microbiology and Biotechnology, 2017)

What was measured:
[1] = tested on: T1, C=COC(=O)/C=C/c1ccc(O)c(OC)c1; test: transesterification rate by HPLC, nonlinear Michaelis-Menten fit; assay type: biochemical, Thermothelomyces thermophilus; conditions: acyl donor, 200 mM prenol, n-hexane:t-butanol:100 mM MOPS-NaOH pH 6.0 19.8:74.7:5.5 v/v/v microemulsion, 40 °C, 8 h, error = SE
T1 construct: secreted, over-expressed in low-background M. thermophila C1 host
Text: transesterification rate by HPLC, nonlinear Michaelis-Menten fit on FaeA2

[2] = substrate: C=COC(=O)/C=C/c1ccc(O)c(OC)c1; test: as above; assay type: biochemical, Thermothelomyces thermophilus; conditions: acyl donor, 200 mM prenol, n-hexane:t-butanol:100 mM MOPS-NaOH pH 6.0 53.4:43.4:3.2 v/v/v microemulsion, 40 °C, 8 h, error = SE
Text: transesterification rate by HPLC, nonlinear Michaelis-Menten fit on MtFae1a

Molecule	Km [1]	Km [2]
FaeA2 (Thermothelomyces thermophilus)	46.5 (18.1) mM	
MtFae1a (Thermothelomyces thermophilus ATCC 42464) (protein, secreted from Pichia pastoris X33, glycosylated) ASLQEVTEFGDNPTNIQMYIYVPDQLDTNPPVIVALHPCGGSAQQWFSGTQLPSYADDNGFILIYPSTPHMSNCWDIQNPDTLTHGQGGDALGIVSMVNYTLDKHSGDSSRVYAMGFSSGGMMTNQLAGSYPDVFEAGAVYSGVAFGCAAGAESATPFSPNQTCAQGLQKTAQEWGDFVRNAYAGYTGRRPRMQIFHGLEDTLVRPQCAEEALKQWSNVLGVELTQEVSGVPSPGWTQKIYGDGTQLQGFFGQGIGHQSTVNEQQLLQWFGLI		81.2 (22.3) mM
